Results: publication PMC12187637

Experiments:
[1] = molecular target: GFP-tagged ADP-ribosylation-deficient NuMA, NuMA^PARmut construct (UniProt Q14980); test: co-IP; GFP-trap magnetic beads on the chromatin fraction of cells co-transfected with myc-TDP1 and treated with 10 uM H2O2 for 10 min on ice in the dark; immunoblot; three biological replicates
[2] = molecular target: GFP-tagged ADP-ribosylation-deficient NuMA, NuMA^PARmut construct (UniProt Q14980); test: co-IP; GFP-trap magnetic beads on whole-cell extracts (NP-40 lysis buffer with BaseMuncher endonuclease and ADP-HPD) of cells transfected with GFP-NuMA and co-transfected with myc-TDP1, untreated or treated with 10 uM H2O2 for 10 min on ice in the dark; 2 h at 4°C; immunoblot; three biological replicates

UniProt Q14980, sequence (Q14980 other isoform, or with tags, fused parts or gaps, change not shown): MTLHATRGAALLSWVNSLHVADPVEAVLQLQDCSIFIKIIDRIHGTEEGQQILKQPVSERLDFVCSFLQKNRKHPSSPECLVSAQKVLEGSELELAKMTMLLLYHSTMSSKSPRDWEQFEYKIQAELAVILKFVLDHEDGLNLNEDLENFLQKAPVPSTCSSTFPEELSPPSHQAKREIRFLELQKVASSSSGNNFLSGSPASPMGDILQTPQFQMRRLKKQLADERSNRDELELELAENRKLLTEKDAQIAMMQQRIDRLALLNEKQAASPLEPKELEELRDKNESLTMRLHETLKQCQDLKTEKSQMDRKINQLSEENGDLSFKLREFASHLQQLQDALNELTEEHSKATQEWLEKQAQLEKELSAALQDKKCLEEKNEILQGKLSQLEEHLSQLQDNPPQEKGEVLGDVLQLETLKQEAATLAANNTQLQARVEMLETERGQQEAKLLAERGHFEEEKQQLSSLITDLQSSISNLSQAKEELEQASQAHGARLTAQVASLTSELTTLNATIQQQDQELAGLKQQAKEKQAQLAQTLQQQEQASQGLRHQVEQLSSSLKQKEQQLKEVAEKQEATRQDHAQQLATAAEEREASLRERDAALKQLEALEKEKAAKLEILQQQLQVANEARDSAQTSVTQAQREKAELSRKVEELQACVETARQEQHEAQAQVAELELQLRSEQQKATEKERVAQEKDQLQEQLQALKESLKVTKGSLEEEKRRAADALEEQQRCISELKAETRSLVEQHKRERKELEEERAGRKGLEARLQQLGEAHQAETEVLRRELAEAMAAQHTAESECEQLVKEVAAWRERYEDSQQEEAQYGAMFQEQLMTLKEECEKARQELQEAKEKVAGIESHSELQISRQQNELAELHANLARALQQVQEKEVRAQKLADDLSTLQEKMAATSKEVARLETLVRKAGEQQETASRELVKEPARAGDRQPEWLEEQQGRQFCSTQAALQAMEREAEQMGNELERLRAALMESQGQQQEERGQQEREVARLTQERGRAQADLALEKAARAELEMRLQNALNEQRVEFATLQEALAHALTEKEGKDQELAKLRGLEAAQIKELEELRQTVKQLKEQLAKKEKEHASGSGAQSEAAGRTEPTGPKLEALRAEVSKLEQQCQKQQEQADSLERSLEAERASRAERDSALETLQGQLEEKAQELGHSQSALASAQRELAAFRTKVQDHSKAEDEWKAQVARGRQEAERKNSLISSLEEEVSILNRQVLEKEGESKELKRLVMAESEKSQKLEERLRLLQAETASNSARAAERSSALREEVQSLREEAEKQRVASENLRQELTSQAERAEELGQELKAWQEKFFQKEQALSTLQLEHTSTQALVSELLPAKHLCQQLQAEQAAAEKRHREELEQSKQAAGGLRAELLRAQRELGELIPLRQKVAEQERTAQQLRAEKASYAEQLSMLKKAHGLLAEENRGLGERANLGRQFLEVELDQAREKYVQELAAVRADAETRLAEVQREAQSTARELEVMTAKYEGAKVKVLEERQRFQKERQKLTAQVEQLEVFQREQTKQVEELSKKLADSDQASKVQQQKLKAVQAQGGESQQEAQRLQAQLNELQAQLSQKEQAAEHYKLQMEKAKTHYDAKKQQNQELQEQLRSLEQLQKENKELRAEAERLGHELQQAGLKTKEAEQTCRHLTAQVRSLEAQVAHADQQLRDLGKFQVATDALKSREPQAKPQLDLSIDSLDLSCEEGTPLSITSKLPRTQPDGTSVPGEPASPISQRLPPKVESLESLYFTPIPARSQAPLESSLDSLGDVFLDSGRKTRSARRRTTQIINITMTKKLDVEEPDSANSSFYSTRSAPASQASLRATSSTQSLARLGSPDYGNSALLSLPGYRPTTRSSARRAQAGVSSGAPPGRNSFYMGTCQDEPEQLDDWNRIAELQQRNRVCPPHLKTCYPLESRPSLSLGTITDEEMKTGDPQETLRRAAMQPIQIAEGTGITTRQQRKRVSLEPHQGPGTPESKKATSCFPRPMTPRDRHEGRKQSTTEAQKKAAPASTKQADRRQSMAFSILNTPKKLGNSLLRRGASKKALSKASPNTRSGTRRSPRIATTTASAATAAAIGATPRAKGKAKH

myc-TDP1 (tyrosyl DNA phosphodiesterase 1) (from UniProt Q9NUW8 1-608) (enzyme)
percent lower interaction than with NuMA^WT (chromatin fraction, H2O2-treated cells) [1]: 50%
percent decrease in interaction relative to NuMA^WT (H2O2-treated cells) [2]: 38 to 45%
percent decrease in interaction relative to NuMA^WT (untreated cells) [2]: 38 to 45%
